We go through 1 molecule from publication PMC7040040.

The test has as its target T1, pE3-Aβ(3–18) monomer.
T1 chain: EFRHDSGYEVHHQKLV
Briefly: SPR (Biacore). The following applies: chain shown with the change.

B1: humanized PBD-C06 (CDR-grafted IgG1:kappa version) VL:F41L (protein)
chain 1: QVQLVQSGAEVKKSGASVKVSCKASGYSFTGYTMNWVRQAPGQGLEWMGLINPYNGVTRYNQKFKGRVTLIRDTSTTTVYMELTSLTSEDTAVYYCAREAKREWDETYWGQGTLVTVSS
chain 2: DVVMTQSPLSLPVTLGQPASISCKSSQSLLYSDGKTYLNWLQQRPGQSPRRLIYLVSKLDSGVPDRFSGSGSGTDFTLKISRVEAEDVGVYYCVQGTHFPFTFGGGTKVEIK
In the case of B1, the Kd came out at 162 nM.
